Laboratory results as given in the supplement of paper PMC10567573.
± gives the standard deviation.

Test: protein stability index of a GFP-peptide fusion (GPS, HEK-293T) (PSI 1-6); higher = more stable
Conditions: c terminus: a fixed tail appended
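Also: 24-mer peptide tiles fused after GFP, lentivirally expressed, FACS-sorted into six equal bins by GFP/DsRed ratio, decoded by Illumina sequencing, PSI is the read-weighted mean bin number.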

Sequence	protein stability index (treatment: DMSO)	protein stability index (treatment: MLN4924 1 uM, 8 h)
YCVPRGNRRRFRVRQPILQYRWDM [BEX1]	2.46 ± 0.21	2.55 ± 0.17
QDRFRIELSEEGAEGRVVGRKDIT [MOSPD3]	4.91 ± 0.23	5.1 ± 0.31
DLGHVTRISSPQVEEGDSRFLANE [WEE1]	4.88 ± 0.29	4.96 ± 0.27
PALLEATGGAAGAGGAGRGEDEEN [KCTD13]	5.62 ± 0.24	5.64 ± 0.24
LTMAATFDDCLYALCVVDTIKRSS [GFOD1]	2.54 ± 0.72	2.68 ± 0.57
RFFGPNAEISQPPALSQLVNLYLG [TCF25]	3.05 ± 0.19	2.96 ± 0.36
GGFDGSRRHTSMERYDPNIDQWSM [KLHL12]	3.76 ± 0.28	3.89 ± 0.45
MEDSFLQSFGRLSLQPQQQQQRQR [N4BP2L1]	4.69 ± 0.3	4.63 ± 0.25
KMQQSKNQVVSSTNGELNTDDPTA [CSNK1G3]	5.37 ± 0.21	5.34 ± 0.13
FSDDCDLPSAQDINRLVGLQNTYM [GLT8D2]	3.68 ± 0.26	3.66 ± 0.11
LLWSDPADNKIVSHLLVAEPEKIY [ESRRG]	2.36 ± 0.3	2.55 ± 0.16
KRFQLTKLPPYLIFCIKRFTKNNF [USP39]	2 ± 0.31	2.78 ± 0.81
YKYCDHENAAFKDVALVLTVLLEE [TOR1AIP2]	2.5 ± 0.43	2.8 ± 0.52
REVALLRRLEAFEHPNVVRLMDVC [CDK4]	2.52 ± 0.15	2.68 ± 0.2
YTATEQEMQQQMSLGELCHPVPLS [TRIM14]	4.26 ± 0.23	4.14 ± 0.27
YSECIVTVGGEERVSRKPTAAMRC [GAN]	3.56 ± 0.32	3.85 ± 0.66
NYSQDAADACDIDEIEEVPTTSHR [NETO1]	5.55 ± 0.18	5.49 ± 0.17
YRKKSAEFPDFYDSEEPVSTHQEA [CHGB]	4.97 ± 0.12	5.01 ± 0.32
CVPGQVFSPDGPSRFRKAYKPEQP [LOXL2]	3.17 ± 0.19	3.33 ± 0.091
NAGLSHTEYQIVTDPGDVPAFLKW [SLC2A12]	2.92 ± 0.3	3.1 ± 0.34
LPSDGDHQVPTTAGNKAALLDQIR [WASL]	4.73 ± 0.24	4.1 ± 0.84
AGCCQVFDALDDYEHHYHTLHGNV [ZNF511]	2.84 ± 0.35	2.88 ± 0.23

Sequence	protein stability index (treatment: DMSO)	protein stability index (treatment: MLN4924 1 uM, 8 h)
CTNTYVTGLSMIANGGAICAVTFF [OR4A15]	3.25 ± 0.52	3.33 ± 0.38
MNHYKKTTLEIHNTEERQKRQVTH [PTPN9]	4.52 ± 0.06	4.49 ± 0.36
VHLLLKKVLFALCALNALTTTVCL [FAM189A2]	3.48 ± 0.24	3.02 ± 0.36
DVRQNPCGSKACRRLFGPVDSEQL [CDKN1A]	3.03 ± 0.2	3.12 ± 0.28
PGEFSDASMSPDATKPSHWCSVAY [SMAD6]	3.07 ± 0.14	3.14 ± 0.19
AEKKREAKQRAKEAQERELRKREK [LRRC59]	5.38 ± 0.12	5.33 ± 0.11
QLSAPHCKKLSLELGGKNPAIIFE [ALDH8A1]	2.8 ± 0.26	2.9 ± 0.43
HGSGSHPGPASGPGPDTGPDSELS [SPAG8]	5.41 ± 0.25	5.37 ± 0.36
EGRLERRECGLAAPRFSFNDPSGS [IRX6]	3.79 ± 0.27	3.98 ± 0.2
SVAVAARHAQTISGHALRILIVDW [HDAC6]	2.82 ± 0.73	2.62 ± 0.63
EVILGDIWKLNLQTFQWVKLPATM [KLHDC10]	2.51 ± 0.51	2.21 ± 0.3
IPGEHFWLLLLTRGLVGVGEASYS [SPNS1]	3.1 ± 0.47	2.37 ± 0.58
NDFWRIEVVNRKFGNRIKVLRSRI [POMT2]	2.19 ± 0.6	2.17 ± 0.48
EQKAAGSASAKRVWNMTATRPKKM [FATE1]	4.43 ± 0.16	4.39 ± 0.22
EAVARHMLIFSLALEEPEKMGLQE [DNAAF3]	2.47 ± 0.55	2.28 ± 0.27
HFPHLLSPQIQRSAHRALYRRHVL [TMEM175]	2.69 ± 0.26	2.85 ± 0.15
EPPPPLHNNNNNCEENEQSLPPPA [BNIP3L]	5.51 ± 0.27	5.68 ± 0.13
QRDVGWAALLILFAASLLTVFAWL [C2CD2L]	2.94 ± 0.34	3.05 ± 0.56
KHSTFGQSLTQRLHALKLRSPDAS [GNAS]	3.37 ± 0.29	3.44 ± 0.2
DRDGHIKLTDFGFAKKLVDRTWTL [PRKX]	2.1 ± 0.35	2.35 ± 0.42
FLVSTHTGEVRTARALLEDDSDTQ [PCDHGC5]	4.63 ± 0.22	4.76 ± 0.24
FYSTSSGLANGLQLLCPWAPLSGP [VENTX]	2.88 ± 0.4	2.54 ± 0.55

Sequence	protein stability index (treatment: DMSO)	protein stability index (treatment: MLN4924 1 uM, 8 h)
ADSEQADIARMLYKDTCHELDELQ [ZMYND11]	5.14 ± 0.24	4.99 ± 0.2
ILFLNKKDLFEEKIKKSPLTICYP [GNAI1]	2.43 ± 0.9	2.21 ± 0.75
YLTGTINGDPESVASLHWDGGALL [ADAMTS4]	2.88 ± 0.59	3.1 ± 0.32
CFGLQPGCLLPDGSRMMAVAALVV [NLN]	2.47 ± 0.23	2.75 ± 0.34
ELAYMKKNHEEEMKEFSNQVVGQV [KRT13]	4.7 ± 0.26	4.66 ± 0.14
QEIATYRRLLEGEDAHLTQYKKEP [KRT17]	4.68 ± 0.19	4.82 ± 0.18
EMQIENLKEELAYLKKNHEEEMNA [KRT17]	4.67 ± 0.24	4.88 ± 0.33
PAGTPPPTARHFQEHPRQQLATSS [MOSPD3]	4.74 ± 0.27	4.83 ± 0.17
GSKSQRYSGAYGASVSDEELKRRV [CHCHD3]	4.99 ± 0.29	4.86 ± 0.18
GGMLNFMMHDQRTGPAWNVLMWTM [SOAT2]	2.49 ± 1.2	2.07 ± 0.73
EAVFLRAVKLYNSGDFRSSTEDME [P3H4]	3.69 ± 0.36	3.73 ± 0.52
VSQHWATWALYNLVSVYPDKYCPL [ZER1]	3.07 ± 0.34	2.74 ± 0.41
KFDHIEVRDGPFGFSPIIGRFCGQ [NETO1]	2.3 ± 0.28	2.44 ± 0.34
MPSPTDVVLPGAVSLRYSGATAAS [ADAMTS4]	4.16 ± 0.3	4.25 ± 0.32
EIPENYNSAMPFKILYDDGKMVEE [PTPRD]	4.55 ± 0.2	4.79 ± 0.071
NPSQKTGQALLTHLYQSSARRYAG [ELAVL3]	3.58 ± 0.23	3.4 ± 0.36
TTLEIHNTEERQKRQVTHFQFLSW [PTPN9]	2.28 ± 0.41	2.78 ± 0.59
PLSSQPQAIVTEDKTDISSGRARQ [MLH1]	4.99 ± 0.14	5.15 ± 0.23
LQRNPKHELTAKYLNYYQGMLDVA [P3H4]	2.3 ± 0.13	2.39 ± 0.41
DAGEGIQCSQRMLSFSDALLSIIA [TMEM175]	2.25 ± 0.091	2.35 ± 0.3
SISEEGFHYLVFDLVTGGELFEDI [CAMK2B]	2.32 ± 0.42	2.24 ± 0.4
